The experiment addresses H77 E1E2 (full-length E1E2, wild type) (Hepatitis C virus genotype 1a, isolate …). Briefly: ELISA. A general note: ELISA stands for enzyme-linked immunosorbent assay.

B1: 212.1.1 IgG (antibody, V domains shown)
VH: QVQLVQSGAEVKKPGSSVKVSCKASGGTLSSYGISWVRQAPGQGLEWLGGSIPILGTSVYAQKFQGRVTMTADESTSTAHMELSSLRFDDTAIYYCAGVREGMAAISGKNAFDIWGQGTMVTVSS
VL: DIQMTQSPSSLSASVGDRVTITCRASQGISNYLAWYQQKPGKVPKLLIYAASTLQSGVPSRFSGSGYGTEFTLTISSLQPEDVATYYCQQHDNLPLTFGGGTKVEIK
Consider B1, for which the binding result is given as “binds”.
